Substrate in the data set: Nc1ncnc2c1ncn2[C@@H]1O[C@H](COP(=O)(O)OP(=O)(O)OP(=O)(O)O)[C@@H](O)[C@H]1O
Description: purified protein. Particulars: conformational turnover per ring (printed as Vmax, maximum turnover rate), reconstituted membranes, 10 mM HEPES pH 7.5, 200 mM NaCl, 2 mM MgCl2, ambient temperature.

Here are results for 1 protein from PMC10567702, “A concerted ATPase cycle of the protein transporter AAA-ATPase Bcs1” (Nature Communications, 2023).

B1: Bcs1 (mBcs1) (Mus musculus) (protein)
chain: MPFSDFVLALKDNPYFGAGFGLVGVGTALAMARKGAQLGLVAFRRHYMITLEVPARDRSYAWLLSWLTRHSTRTQHLSVETSYLQHESGRISTKFEFIPSPGNHFIWYQGKWIRVERNRDMQMVDLQTGTPWESVTFTALGTDRKVFFNILEEARALALQQEEGKTVMYTAVGSEWRTFGYPRRRRPLDSVVLQQGLADRIVKDIREFIDNPKWYIDRGIPYRRGYLLYGPPGCGKSSFITALAGELEHSICLLSLTDSSLSDDRLNHLLSVAPQQSLVLLEDVDAAFLSRDLAVENPIKYQGLGRLTFSGLLNALDGVASTEARIVFMTTNYIDRLDPALIRPGRVDLKEYVGYCSHWQLTQMFQRFYPGQAPSLAENFAEHVLKATSEISPAQVQGYFMLYKNDPMGAVHNIESLR
Turning to B1, the Km turned out to be 0.2 µM and the turnover number (kcat) was about 0.17 s⁻¹.
